Measurements: US20250034256A1 (EUCURE BEIJING BIOPHARMA, published 2025)

Assays:
[1] = target: mouse PD-1 (mPD-1) on transfected CHO cells (mouse) (UniProt Q02242); assay: flow cytometry on CHO cells transfected with mPD-1 (CHO-mPD-1); anti-mIgG Fc-FITC against SSC-H
[2] = target: monkey (rhesus macaque) PD-1 (rmPD-1) on transfected CHO cells (rhesus macaque); assay: flow cytometry on CHO cells transfected with rmPD-1 (CHO-rmPD-1); anti-mIgG Fc-FITC against SSC-H
[3] = target: chimeric (mouse and human) PD-1 (chiPD-1) on transfected CHO cells (chimeric (mouse and human)); assay: flow cytometry on CHO cells transfected with chiPD-1 (CHO-chiPD-1); anti-mIgG Fc-FITC against SSC-H
Chain of chimeric (mouse and human) PD-1 (chiPD-1) on transfected CHO cells (chimeric (mouse and human)) (chain, as listed by the source mutant limits assumed): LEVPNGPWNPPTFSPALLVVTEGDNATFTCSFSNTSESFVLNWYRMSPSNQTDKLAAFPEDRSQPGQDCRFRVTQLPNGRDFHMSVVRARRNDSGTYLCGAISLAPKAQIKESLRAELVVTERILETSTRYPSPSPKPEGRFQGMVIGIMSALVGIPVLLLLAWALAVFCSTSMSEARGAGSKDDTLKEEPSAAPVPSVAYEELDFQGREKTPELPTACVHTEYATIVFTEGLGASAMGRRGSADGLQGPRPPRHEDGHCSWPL

Chain of monkey (rhesus macaque) PD-1 (rmPD-1) on transfected CHO cells (rhesus macaque) (Q15116 other isoform, or with tags, fused parts or gaps limits assumed): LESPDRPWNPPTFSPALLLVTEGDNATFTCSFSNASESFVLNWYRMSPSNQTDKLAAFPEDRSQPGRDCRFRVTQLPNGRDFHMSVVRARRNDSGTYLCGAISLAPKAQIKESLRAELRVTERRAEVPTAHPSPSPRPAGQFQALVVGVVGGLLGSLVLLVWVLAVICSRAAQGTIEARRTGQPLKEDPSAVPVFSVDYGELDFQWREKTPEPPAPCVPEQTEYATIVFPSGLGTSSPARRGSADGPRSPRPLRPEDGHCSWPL
Chain of mouse PD-1 (mPD-1) on transfected CHO cells (mouse) (Q02242 25-288 limits assumed): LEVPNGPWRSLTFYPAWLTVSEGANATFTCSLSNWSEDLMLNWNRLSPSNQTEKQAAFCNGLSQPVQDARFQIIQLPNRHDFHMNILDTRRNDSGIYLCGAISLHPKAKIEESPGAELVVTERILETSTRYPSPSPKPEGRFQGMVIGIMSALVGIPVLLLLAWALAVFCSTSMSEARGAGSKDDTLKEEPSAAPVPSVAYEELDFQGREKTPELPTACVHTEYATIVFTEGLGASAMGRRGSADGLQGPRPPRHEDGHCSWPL

% cells positive for Anti-mouse-IgGFc-FITC [1]: 0.346%
% cells positive for Anti-mouse-IgGFc-FITC [2]: 0.812%
% cells positive for Anti-mouse-IgGFc-FITC [3]: 2.79%
Substance: NC
